Experimental data published in PMC5955458, “Secreted Giardia intestinalis cysteine proteases disrupt intestinal epithelial cell junctional complexes and degrade chemokines” (Virulence, 2018).

Legend:
[1] = test system: Cc1cc(=O)oc2cc(NC(=O)[C@H](CCCNC(=N)N)NC(=O)[C@H](Cc3ccccc3)NC(=O)OCc3ccccc3)ccc12; test: purified protein; conditions: 4 mM DTT, 10 mM EDTA
[2] = test system: Cc1cc(=O)oc2cc(NC(=O)[C@H](CCCNC(=N)N)NC(=O)[C@H](CCCNC(=N)N)NC(=O)OCc3ccccc3)ccc12; test: purified protein; conditions: 4 mM DTT, 10 mM EDTA
[3] = pH 5.5, 37°C, sodium acetate buffer
[4] = pH 6, 37°C, sodium phosphate buffer
[5] = pH 6, 37°C, sodium phosphate buffer, pre-activated 120 min at pH 5.5
[6] = pH 5.5, 37°C, sodium acetate buffer, pre-activated 120 min at pH 5.5, pH 5.5

Q: How did the Km [1, 3] turn out when CP14019 (Giardia lamblia ATCC 50803) was run?
A: Its Km is 3.17 ± 0.34 µM.

Q: What about the kcat/Km [1, 3] of the same substance?
A: Its kcat/Km is 179000 to 237000 M⁻¹ s⁻¹.

Q: What about the Km [2, 3] of the same substance?
A: Its Km is 5.11 ± 1.11 µM.

Q: And the kcat/Km [2, 3]?
A: Its kcat/Km is 5410 to 9840 M⁻¹ s⁻¹.

Q: What does the source list for CP16779 (Giardia lamblia ATCC 50803)?
A: Km [1, 4]: 0.96 ± 0.24 µM; kcat/Km [1, 4]: 1.02e+06 to 2.06e+06 M⁻¹ s⁻¹; Km [2, 4]: 5.40 ± 0.75 µM; kcat/Km [2, 4]: 10500 to 14800 M⁻¹ s⁻¹

Q: With CP16160 (Giardia lamblia ATCC 50803) as the substance, how does the Km [1, 5] read?
A: Its Km is 9.40 ± 1.46 µM.

Q: And the kcat/Km [1, 5]?
A: Its kcat/Km is 43000 to 67700 M⁻¹ s⁻¹.

Q: And the Km [2, 6]?
A: Its Km is 5.60 ± 1.00 µM.

Q: And the kcat/Km [2, 6]?
A: Its kcat/Km is 58600 to 96100 M⁻¹ s⁻¹.
